These are literature values, as cited in PMC6295873 (Chemical Science, 2018).

The conditions of data set [1]: MUC1-based anticancer-vaccines; ref 39 (preceding sentence).

As to “KP10: endogenous neuropeptide acting through its cognate G-protein-coupled receptor, KiSS1R”, the half-life in blood is given as below 1 min.

With “natural MUC1 glycoprotein: densely O-glycosylated human mucin glycoprotein”, the immunogenicity result in data set [1] is “very low immunogenicity”.
